# Test system: Escherichia coli TOP10
# Test: shrunken log2 fold change of peptide-encoding DNA abundance (4.5 h post-induction vs induction); higher = less antimicrobial activity (less host growth inhibition)
# Details: time post-induction: 4.5 h; library: site-saturation at positions 5, 18, 19, 20
# 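Also: peptides expressed intracellularly from a pBAD plasmid library in pooled LB shake-flask culture, induced with 0.3% L-arabinose, DNA abundance read by NGS, three biological replicates, DESeq2 with apeglm shrinkage.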
row,Sequence,shrunken log2 fold change
1,RRIRLRPPRLPRPRPRPPIIPRP,-0.195
2,RRIRVRPPRLPRPRPRPKGLPRP,-0.239
3,RRIRGRPPRLPRPRPRPSFAPRP,0.723
4,RRIRYRPPRLPRPRPRPDWAPRP,0.0528
5,RRIRLRPPRLPRPRPRPHFMPRP,0.0603
6,RRIRGRPPRLPRPRPRPYCIPRP,0.174
7,RRIRDRPPRLPRPRPRPSDVPRP,-0.022
8,RRIRSRPPRLPRPRPRPIACPRP,0.12
9,RRIRCRPPRLPRPRPRPANYPRP,-0.342
10,RRIRERPPRLPRPRPRPPLMPRP,0.0142
11,RRIRSRPPRLPRPRPRPSGEPRP,0.406
12,RRIRWRPPRLPRPRPRPIPNPRP,-0.262
13,RRIRLRPPRLPRPRPRPCGIPRP,0.142
14,RRIRERPPRLPRPRPRPYTRPRP,-0.252
15,RRIRFRPPRLPRPRPRPVCAPRP,0.198
16,RRIRHRPPRLPRPRPRPPPKPRP,0.906
17,RRIRHRPPRLPRPRPRPQGGPRP,-0.0982
18,RRIRQRPPRLPRPRPRPKIMPRP,-0.668
19,RRIRYRPPRLPRPRPRPNYAPRP,-0.223
20,RRIRQRPPRLPRPRPRPDMTPRP,-0.129
21,RRIRPRPPRLPRPRPRPWPSPRP,-0.125
22,RRIRSRPPRLPRPRPRPNILPRP,-0.61
23,RRIRNRPPRLPRPRPRPDMHPRP,-0.0698
24,RRIRHRPPRLPRPRPRPGMSPRP,-0.0653
25,RRIRVRPPRLPRPRPRPAKGPRP,-0.283

row,Sequence,shrunken log2 fold change
1,RRIRQRPPRLPRPRPRPMKVPRP,0.0879
2,RRIRYRPPRLPRPRPRPIMSPRP,-0.114
3,RRIRKRPPRLPRPRPRPVLDPRP,0.0689
4,RRIRNRPPRLPRPRPRPVVNPRP,-0.244
5,RRIRIRPPRLPRPRPRPDWVPRP,0.135
6,RRIRYRPPRLPRPRPRPCGSPRP,0.00387
7,RRIRSRPPRLPRPRPRPNAAPRP,0.675
8,RRIRQRPPRLPRPRPRPPVIPRP,-0.498
9,RRIRFRPPRLPRPRPRPTPIPRP,0.485
10,RRIRQRPPRLPRPRPRPHANPRP,-0.671
11,RRIRRRPPRLPRPRPRPAEVPRP,0.219
12,RRIRTRPPRLPRPRPRPYTIPRP,-1.21
13,RRIRWRPPRLPRPRPRPISPPRP,-0.887
14,RRIRNRPPRLPRPRPRPRHDPRP,0.0353
15,RRIRCRPPRLPRPRPRPYFEPRP,-0.572
16,RRIRPRPPRLPRPRPRPFAYPRP,-0.135
17,RRIRTRPPRLPRPRPRPEAPPRP,0.139
18,RRIRERPPRLPRPRPRPSNAPRP,-0.086
19,RRIRHRPPRLPRPRPRPTQGPRP,0.318
20,RRIRHRPPRLPRPRPRPSVSPRP,-0.0167
21,RRIRQRPPRLPRPRPRPKDVPRP,0.00879
22,RRIRCRPPRLPRPRPRPHDTPRP,-0.427
23,RRIRTRPPRLPRPRPRPLWSPRP,0.0357
24,RRIRVRPPRLPRPRPRPEWRPRP,0.212
25,RRIRARPPRLPRPRPRPSKDPRP,-0.111

row,Sequence,shrunken log2 fold change
1,RRIRFRPPRLPRPRPRPLYAPRP,-0.119
2,RRIRTRPPRLPRPRPRPDMQPRP,1.96
3,RRIRVRPPRLPRPRPRPNGAPRP,-0.0189
4,RRIRARPPRLPRPRPRPEKVPRP,0.131
5,RRIRTRPPRLPRPRPRPHFEPRP,-0.323
6,RRIRIRPPRLPRPRPRPGCGPRP,0.349
7,RRIRLRPPRLPRPRPRPDQNPRP,-0.0565
8,RRIRGRPPRLPRPRPRPMCHPRP,0.874
9,RRIRGRPPRLPRPRPRPGCDPRP,1.26
10,RRIRRRPPRLPRPRPRPTTTPRP,0.34
11,RRIRARPPRLPRPRPRPDGQPRP,0.0234
12,RRIRCRPPRLPRPRPRPLVRPRP,0.0749
13,RRIRERPPRLPRPRPRPPEVPRP,0.452
14,RRIRSRPPRLPRPRPRPDEIPRP,0.139
15,RRIRRRPPRLPRPRPRPYMHPRP,-0.451
16,RRIRSRPPRLPRPRPRPMIPPRP,-0.109
17,RRIRGRPPRLPRPRPRPNQEPRP,0.389
18,RRIRHRPPRLPRPRPRPMRDPRP,0.684
19,RRIRCRPPRLPRPRPRPGRLPRP,-0.0858
20,RRIRWRPPRLPRPRPRPMRIPRP,0.222
21,RRIRDRPPRLPRPRPRPMGVPRP,0.0778
22,RRIRQRPPRLPRPRPRPMELPRP,-0.109
23,RRIRQRPPRLPRPRPRPSTLPRP,-0.319
24,RRIRTRPPRLPRPRPRPRPPPRP,0.745
25,RRIRWRPPRLPRPRPRPYQCPRP,-0.325

row,Sequence,shrunken log2 fold change
1,RRIRFRPPRLPRPRPRPTKSPRP,0.106
2,RRIRGRPPRLPRPRPRPIITPRP,-0.0865
3,RRIRWRPPRLPRPRPRPQQGPRP,0.342
4,RRIRLRPPRLPRPRPRPVVIPRP,-0.0403
5,RRIRMRPPRLPRPRPRPGTPPRP,1.02
6,RRIRDRPPRLPRPRPRPQWQPRP,-0.0558
7,RRIRNRPPRLPRPRPRPTAKPRP,-0.136
8,RRIRMRPPRLPRPRPRPLLRPRP,0.0923
9,RRIRLRPPRLPRPRPRPQYKPRP,-1.05
10,RRIRDRPPRLPRPRPRPCITPRP,-0.128
11,RRIRRRPPRLPRPRPRPMADPRP,0.357
12,RRIRKRPPRLPRPRPRPQIDPRP,0.00239
13,RRIRHRPPRLPRPRPRPCTQPRP,-0.367
14,RRIRDRPPRLPRPRPRPYPIPRP,0.0369
15,RRIRIRPPRLPRPRPRPCENPRP,-0.00127
16,RRIRARPPRLPRPRPRPKGNPRP,0.0299
17,RRIRIRPPRLPRPRPRPLKQPRP,0.0465
18,RRIRHRPPRLPRPRPRPYNHPRP,-0.316
19,RRIRLRPPRLPRPRPRPHAGPRP,0.168
20,RRIRTRPPRLPRPRPRPTMSPRP,-0.163
21,RRIRFRPPRLPRPRPRPCQFPRP,-0.227
22,RRIRFRPPRLPRPRPRPLWCPRP,-0.0894
23,RRIRCRPPRLPRPRPRPVTSPRP,-0.0245
24,RRIRFRPPRLPRPRPRPRMFPRP,0.169
25,RRIRWRPPRLPRPRPRPLHVPRP,0.407

row,Sequence,shrunken log2 fold change
1,RRIRPRPPRLPRPRPRPCQCPRP,-0.0627
2,RRIRQRPPRLPRPRPRPESGPRP,0.0279
3,RRIRVRPPRLPRPRPRPYATPRP,-0.124
4,RRIRSRPPRLPRPRPRPWTLPRP,-0.0934
5,RRIRDRPPRLPRPRPRPVHPPRP,0.184
6,RRIRDRPPRLPRPRPRPLYIPRP,-0.266
7,RRIRERPPRLPRPRPRPHLNPRP,-0.434
8,RRIRFRPPRLPRPRPRPQIQPRP,-0.42
9,RRIRQRPPRLPRPRPRPQYMPRP,-0.587
10,RRIRLRPPRLPRPRPRPDRKPRP,-0.0365
11,RRIRQRPPRLPRPRPRPNKCPRP,-0.145
12,RRIRARPPRLPRPRPRPQKPPRP,0.117
13,RRIRYRPPRLPRPRPRPQTTPRP,-0.0405
14,RRIRYRPPRLPRPRPRPSDAPRP,-0.386
15,RRIRRRPPRLPRPRPRPESSPRP,0.53
16,RRIRSRPPRLPRPRPRPFIPPRP,-0.629
17,RRIRVRPPRLPRPRPRPQYHPRP,-0.648
18,RRIRHRPPRLPRPRPRPMQRPRP,0.138
19,RRIRSRPPRLPRPRPRPCITPRP,-0.185
20,RRIRARPPRLPRPRPRPENHPRP,-0.102
21,RRIRMRPPRLPRPRPRPRFLPRP,-0.00457
22,RRIRSRPPRLPRPRPRPRFNPRP,-0.153
23,RRIRGRPPRLPRPRPRPQLVPRP,0.0859
24,RRIRNRPPRLPRPRPRPATHPRP,0.224
25,RRIRVRPPRLPRPRPRPGAVPRP,0.481

row,Sequence,shrunken log2 fold change
1,RRIRNRPPRLPRPRPRPTFRPRP,-0.22
2,RRIRTRPPRLPRPRPRPYTRPRP,-0.0177
3,RRIRWRPPRLPRPRPRPLLQPRP,0.2
4,RRIRLRPPRLPRPRPRPNFPPRP,-0.00674
5,RRIRIRPPRLPRPRPRPQSHPRP,-0.383
6,RRIRCRPPRLPRPRPRPPFIPRP,-0.154
7,RRIRFRPPRLPRPRPRPKISPRP,-0.596
8,RRIRYRPPRLPRPRPRPKFKPRP,-0.319
9,RRIRMRPPRLPRPRPRPHKDPRP,-0.0811
10,RRIRHRPPRLPRPRPRPGRMPRP,-0.313
11,RRIRPRPPRLPRPRPRPQFMPRP,-0.259
12,RRIRGRPPRLPRPRPRPEMMPRP,1.3
13,RRIRTRPPRLPRPRPRPQYLPRP,-0.436
14,RRIRHRPPRLPRPRPRPVRNPRP,0.0796
15,RRIRFRPPRLPRPRPRPAYRPRP,-0.0676
16,RRIRPRPPRLPRPRPRPLMMPRP,-0.204
17,RRIRIRPPRLPRPRPRPEHRPRP,-0.051
18,RRIRMRPPRLPRPRPRPHGAPRP,0.0098
19,RRIRERPPRLPRPRPRPNFFPRP,-0.0705
20,RRIRGRPPRLPRPRPRPTEQPRP,0.883
21,RRIRARPPRLPRPRPRPWWKPRP,-0.00149
22,RRIRNRPPRLPRPRPRPFFEPRP,-0.0529
23,RRIRNRPPRLPRPRPRPRAKPRP,0.0711
24,RRIRQRPPRLPRPRPRPKMCPRP,-0.002
25,RRIRRRPPRLPRPRPRPLSAPRP,0.444
